These results are taken from IntAct's records for PubMed 10869553.

The chains are these.
B1: Protein S100-A4 (Mus musculus), P07091 (parent)
chain: MARPLEEALDVIVSTFHKYSGKEGDKFKLNKTELKELLTRELPSFLGKRTDEAAFQKVMSNLDSNRDNEVDFQEYCVFLSCIAMMCNEFFEGCPDKEPRKK
partner: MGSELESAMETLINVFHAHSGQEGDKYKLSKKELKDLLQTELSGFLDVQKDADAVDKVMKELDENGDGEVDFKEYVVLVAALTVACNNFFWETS

In the assay the parent is B1. The conditions noted are these: with S100a1, P56565.
Consider F72A, for which the “effect of a mutation on the interaction” value is listed as “disrupting interaction”.
